# Measurements as given in article PMC7137382, “Structure of the Mycobacterium smegmatis α-maltose-1-phosphate synthase GlgM” (Acta Crystallographica. Section F, Structural Biology …, 2020).
# Target: the molecule itself
# Test: SEC; Superdex 200 10/300 GL, 50 mM bis-Tris pH 6.0, 5 mM MgCl2, 100 mM NaCl
protein,measurement,value
"α-maltose-1-phosphate synthase GlgM from Mycobacterium smegmatis (enzyme, Mycobacterium smegmatis mc2155, GlgM (glgM gene, MSMEG_5080) from M. smegmatis mc2155, synthesised with codon usage for E. coli; A TEV cleavage site lies between the N-terminal 6×His tag and the protein; also called M. smegmatis GlgM; source: E. coli BL21 Star, purified (HisTrap FF, imidazole gradient); not shown: 6×His, N-terminal, kept) MRVAMMTREYPPEVYGGAGVHVTELVAQLRKLCDVDVHCMGAPRDGAYVAHPDPTLRGANAALTMLSADLNMVNNAEAATVVHSHTWYTGLAGHLASLLYGVPHVLTAHSLEPLRPWKAEQLGGGYQVSSWVERTAVEAADAVIAVSSGMRDDVLRTYPALDPDRVHVVRNGIDTTVWYPAEPGPDESVLAELGVDLNRPIVAFVGRITRQKGVAHLVAAAHRFAPDVQLVLCAGAPDTPQIAEEVSSAVQQLAQARTGVFWVREMLPTHKIREILSAATVFVCPSVYEPLGIVNLEAMACATAVVASDVGGIPEVVADGRTGLLVHYDANDTEAYEARLAEAVNSLVADPDRAREYGVAGRERCIEEFSWAHIAEQTLEIYRKVSA",stoichiometry N,2
